This passage reports Transforming Activity results from patent US20020032310A1.

The assay deals with KGFR (keratinocyte growth factor receptor, KGFR-type isoform of the FGFR2/BEK gene) (mouse) (UniProt P21803). The experiment in a line: cell-based or functional assay.

In turn, “KGF secreted from NIH 3T3 cells (from UniProt P36363 32-194) (ligand)” gave a Transforming Activity of 14000 ffu/pmol DNA.
